Measurements as given in US9168297B2, “Regulation of skin pigmentation by neuregulin-1 (NRG-1)” (The United States of America, as Represented by the …, priority 2010, dated 2015).

Key:
phospho-Akt (Ser473) = assay: Phosphorylated-Akt levels by western blotting in melanocytes; type: cell-based, human; settings: NRG-1 50 ng/ml
Experimental: FIGS. 5A-5D illustrate the effect of NRG-1 on the proliferation of human melanocytes in culture. FIG. 5A) Lightly-pigmented (HEM-LP) and FIG. 5B) darkly-pigmented (HEM-DP) melanocytes were treated with or without NRG-1 (50 ng/ml) for 1, 3, 5 or 9 days in 10 cm culture dishes and total cell numbers were counted. Results are the averages of three studies±SD. FIG. 5C) Phosphorylated-Akt levels were detected by western blotting for HEM-LP and HEM-DP melanocytes treated with NRG-1 (50 ng/ml) for 5 days compared to vehicle treated controls; GAPDH is used as a loading control. FIG. 5D) HEM-DP melanocytes were treated with NRG-1 (50 ng/ml) for 1, 3 or 5 days and p-Akt levels were detected by western blotting compared to vehicle treated controls; GAPDH is used as a loading control. Results shown are representative of three studies; statistically significant differences are indicated.
Fibroblast cultures in 100-mm dishes were solubilized in appropriate volumes of M-PER mammalian protein extraction reagent (Pierce Biotechnology, Rockford, Ill.) containing a Protease Inhibitor mixture (Roche, Mannheim, Germany) and phosphatase inhibitors. The protein concentration of each extract was measured using a BCA protein assay kit (Pierce, Rockford, Ill.). Cell extracts (20 μg) were separated on 8-16% gradient SDS polyacrylamide gels (Invitrogen, Carlsbad, Calif.), after which proteins were transferred to PVDF membranes (Invitrogen, Carlsbad, Calif.). Membranes were blocked for 1 hour in PBS or Tris buffered saline (TBS) containing 0.1% Tween 20 and 5% (w/v) nonfat dry milk powder and were incubated overnight at 4° C. with the primary antibody in PBS containing 0.1% Tween 20 and 2.5% (w/v) nonfat dry milk powder or in 0.1% Tween-TBS with 5% BSA, depending on the antibody. The following primary antibodies were used: anti-human DKK-1 (0.2 μg/ml), anti-human DKK-3 (0.1 μg/ml), anti-human bFGF (0.1 μg/ml), anti-human SCF (0.1 μg/ml), anti-human mouse monoclonal ERBB3 (1 μg/ml) and anti-human mouse monoclonal ERBB4 (2 μg/ml) antibodies from R&D Systems, neuregulin-1α/β1/2 (C-20) (1:500) and GAPDH (FL-335) (1:10,000) antibodies from Santa Cruz Biotechnology, ERBB2 rabbit monoclonal (1:1000) and phospho-Akt (Ser473) (1:1000) antibodies from Cell Signaling Technology. Membranes were then incubated with an HRP-linked anti-rabbit antibody (GE Healthcare) at 1:10,000 dilution or with an anti-goat antibody (DAKO) at 1:2,000 dilution at room temperature for 1 hour. Antigen-antibody complexes were detected using an ECL-plus Western blotting detection system (GE Healthcare). Each study was performed at least in triplicate. […]

ERBB2 mRNA = ERBB2 mRNA level by RT-PCR in melanocytes; type: cell-based, human; settings: HEM-LP and HEM-DP, NRG-1 50 ng/ml, 1 day, vs controls
Experimental: FIGS. 8A and 8B are digital images illustrating the mechanism of ERBB2 abrogation after NRG-1 treatment. FIG. 8A) ERBB2 mRNA levels in HEM-LP and in HEM-DP melanocytes were detected by RT-PCR after treatment with or without NRG-1 (50 ng/ml) for 1 day. FIG. 8B) MG132 (120 nM) was added to the melanocyte culture medium to inhibit proteasomal degradation during treatment of HEM-LP and HEM-DP melanocytes with or without NRG-1 (50 ng/ml). Proteins were extracted for each sample, and ERBB2 levels were detected by western blotting. Results are representative of three studies.
Total RNAs were isolated from cells using an RNeasy mini kit (Qiagen, Valencia, Calif.), and 500 ng RNA of each sample was used for reverse transcription. […]
Whether the decrease in ERBB2 level elicited by NRG-1 was due to transcriptional regulation or to proteasomal degradation was further explored. When ERBB2 mRNA levels were measured after 1 day of treatment with NRG-1, NRG-1 treated cells and controls were similar both for HEM-LP and for HEM-DP melanocytes (FIG. 8A) despite the marked decrease in ERBB2 protein expression noted above.

B1: NRG-1: commercially available recombinant human neuregulin-1 (rhNRG-1-β1, R&D Systems), SEQ ID NO: 11 (protein)
chain: TSHLVKCAEKEKTFCVNGGECFMVKDLSNPSRYLCKCPNEFTGDRCQNYVMASFYKHLGIEFMEAEELYQK
Levels of p-Akt (phospho-Akt (Ser473); HEM-DP, day 1, low confluency, vs control): equally high | Levels of p-Akt, time course (phospho-Akt (Ser473); HEM-DP, day 3 through day 5, control decreased by day 3): maintained higher levels of p-Akt through day 5 | Levels of p-Akt (phospho-Akt (Ser473); HEM-DP, day 5, vs control): significantly higher | Levels of p-Akt (phospho-Akt (Ser473); HEM-LP, day 5, vs control): significantly higher | ERBB2 mRNA levels (ERBB2 mRNA): similar
